Results from article PMC4790104 (Analytical chemistry, 2016).

B1: Ctf4 (natural protein, UniProt Q01454 1-927, looked up)
chain: MVSVIDKLVFDFGGKTLVSLAPDNNTLCVANKNGLTKILKTNNPEEEPETLDSSKLVSSIKCYSNSHFLMTTMQGDALRYNIDSSQEELLARFALPLRDCCVIHSGKMAVFGGDDLELILLELDDETHKKHAIKIDEQVSQISYNSQMNILAVSMINGKVQIFSLTSTIPNKVHELNDYIVANSYDDTHRDKILSNMMDDIDKDNDNDLSETADPDENNVADPEFCAANRICTRVAWHPKGLHFALPCADDTVKIFSIKGYSLQKTLSTNLSSTKAHFIDLQFDPLRGTYIAAVDLNNKLTVWNWETSEIHYTREFKRKITNIAWKIQADSKTLDLVLGTWSGSIAIVQNLAESVVSNIPDQSVAESSTKHGLFVDSESDLENLEGNDDINKSDKLFSDITQEANAEDVFTQTHDGPSGLSEKRKYNFEDEEDFIDDDDGAGYISGKKPHNEHSYSRVHKTHSFPISLANTGKFRYMPFSPAGTPFGFTDRRYLTMNEVGYVSTVKNSEQYSITVSFFDVGRFREYHFEDLFGYDLCFLNEKGTLFGQSKTGQIQYRPHDSIHSNWTKIIPLQAGERITSVAATPVRVIVGTSLGYFRSFNQFGVPFAVEKTSPIVALTAQNYRVFSVHYSQFHGLSYSLSELGTSSKRYYKRECPLPMSLPNINSDMKKDANLDYYNFNPMGIKSLFFSSYGDPCIFGSDNTLLLLSKWRSPEESKWLPILDSNMEIWKMSGGKETTDIHVWPLALAYDTLNCILVKGKHIWPEFPLPLPSEMEIRMPVFVKSKLLEENKAILNKKNEIGADTEAEEGEEDKEIQIPVSMAAEEEYLRSKVLSELLTDTLENDGEMYGNENEVLAALNGAYDKALLRLFASACSDQNVEKALSLAHELKQDRALTAAVKISERAELPSLVKKINNIREARYEQQLK
B2: Ski3 (natural protein, UniProt P17883 1-1432, looked up)
chain: MSDIKQLLKEAKQELTNRDYEETIEISEKVLKLDPDNYFAHIFLGKALSSLPASNNVSSNRNLERATNHYVSAAKLVPDNLLAWKGLFLLFRTTEVVPDILSYDEYFDLCGQYADALLKQEQSQVELINDIKLLKKTHPDCQKAFYQHLKPGSLMAETIGRHLSTPQDALLNLIKILSNIETTEIGKTLSQNRLKLKASDPDYQIKLNSFSWEIIKNSEIDQLYNQLVNILADDQKRSEIENQWLEYRIKVLKSMPLDVKKDFFTKVKEMVEDMVLVNHQSLLAWQKYFEWTDYEDLDNMDAPLIIKYFKKFPKDPLAMILYSWLSSKLSKYDIKSLESANKPPEGHKKTEKETDIKDVDETNEDEVKDRVEDEVKDRVEDEVKDQDEEAKEDEEEDLDDIEIGLLEEEVVTVLTENIVKCKNNILAHRILCQYYLLTKEYEAALPYIKNGISLIAYNIKDLGVHLPLTKREFSLDLATVYTYVDAPKDHNAALKLYDNILSGDFSNIQAKMGKGIIFIERKNWKDAMTLLTQVHEQSPNNLEVLSELSWSKAHMGYMDEALAGLDTVIKGIKGMDLRSIDFRALNLWRQAKVYIMKHASINDAKQENVKCAFKLLIQSIKILDTFAPGFSTLGDIYCHYYKDHLRAFKCYFKAFDLDAGDYTAAKYITETYASKPNWQAASSIASRLIKGEKAKAELRSNNWPFRVVGIAHLEKQEESDSIEWFQSALRVDPNDVESWVGLGQAYHACGRIEASIKVFDKAIQLRPSHTFAQYFKAISLCDVGEYLESLDILEKVCQEAATEESFQIGLVEVLMRCSLDLYSQGFLLKSVSIAKDTIERIKIIISELKCENQQVWIYLSQVLRLFIWIESKVDTLPVESLVSIFENSQFSGSEEIDSVDNIKIDTLLDSTTDDNVSIACKFLILASKYSVSDQKFTDIAGTVRASYWYNIGISELTAFITLKEPQYRDAAIFAFKKSIQLQSNTSETWIGLGIATMDINFRVSQHCFIKATALEPKATNTWFNLAMLGLKKKDTEFAQQVLNKLQSLAPQDSSPWLGMALILEEQGDIIGSSKLFAHSFILSNGRSKAAQFMYAKNVLENHINNGDDERDIETVEKLTTASIALEQFFKKSPDSQFALQCALLTLERLHHYENANELANRLIGILEKKFEKTQDERELFNFAIIKGQFARIHLGLGNFELSIENADLSQGIISESSDEKSMKTKISNHICLGLSYFFLNDFDQTLNQFQELLSISKDSKHLVVLIAKVLYDVGESDTKEIALQELTEYIATSGADLLVTLTIAAMSILDDKREDLSIILEELKALPLSKQIIDKHKDAPYLIEEITKRLYRNDTGKQVWQRSAYFFPNNLKVWERLDKNIQRRIASNGQNKVTAEEMSKLYCESKNLRSIQRGMFLCPWNVTAVKALNECF
B3: Ski8 (natural protein, UniProt Q02793 1-397, looked up)
chain: MSKVFIATANAGKAHDADIFSVSACNSFTVSCSGDGYLKVWDNKLLDNENPKDKSYSHFVHKSGLHHVDVLQAIERDAFELCLVATTSFSGDLLFYRITREDETKKVIFEKLDLLDSDMKKHSFWALKWGASNDRLLSHRLVATDVKGTTYIWKFHPFADESNSLTLNWSPTLELQGTVESPMTPSQFATSVDISERGLIATGFNNGTVQISELSTLRPLYNFESQHSMINNSNSIRSVKFSPQGSLLAIAHDSNSFGCITLYETEFGERIGSLSVPTHSSQASLGEFAHSSWVMSLSFNDSGETLCSAGWDGKLRFWDVKTKERITTLNMHCDDIEIEEDILAVDEHGDSLAEPGVFDVKFLKKGWRSGMGADLNESLCCVCLDRSIRWFREAGGK

Assays:
Test in all cases: native MS
native MS = target: the molecule itself
Ski2 = target: T1, Ski2 (S. cerevisiae (endogenous in budding …, UniProt P35207 1-1287))
T1 sequence (looked up): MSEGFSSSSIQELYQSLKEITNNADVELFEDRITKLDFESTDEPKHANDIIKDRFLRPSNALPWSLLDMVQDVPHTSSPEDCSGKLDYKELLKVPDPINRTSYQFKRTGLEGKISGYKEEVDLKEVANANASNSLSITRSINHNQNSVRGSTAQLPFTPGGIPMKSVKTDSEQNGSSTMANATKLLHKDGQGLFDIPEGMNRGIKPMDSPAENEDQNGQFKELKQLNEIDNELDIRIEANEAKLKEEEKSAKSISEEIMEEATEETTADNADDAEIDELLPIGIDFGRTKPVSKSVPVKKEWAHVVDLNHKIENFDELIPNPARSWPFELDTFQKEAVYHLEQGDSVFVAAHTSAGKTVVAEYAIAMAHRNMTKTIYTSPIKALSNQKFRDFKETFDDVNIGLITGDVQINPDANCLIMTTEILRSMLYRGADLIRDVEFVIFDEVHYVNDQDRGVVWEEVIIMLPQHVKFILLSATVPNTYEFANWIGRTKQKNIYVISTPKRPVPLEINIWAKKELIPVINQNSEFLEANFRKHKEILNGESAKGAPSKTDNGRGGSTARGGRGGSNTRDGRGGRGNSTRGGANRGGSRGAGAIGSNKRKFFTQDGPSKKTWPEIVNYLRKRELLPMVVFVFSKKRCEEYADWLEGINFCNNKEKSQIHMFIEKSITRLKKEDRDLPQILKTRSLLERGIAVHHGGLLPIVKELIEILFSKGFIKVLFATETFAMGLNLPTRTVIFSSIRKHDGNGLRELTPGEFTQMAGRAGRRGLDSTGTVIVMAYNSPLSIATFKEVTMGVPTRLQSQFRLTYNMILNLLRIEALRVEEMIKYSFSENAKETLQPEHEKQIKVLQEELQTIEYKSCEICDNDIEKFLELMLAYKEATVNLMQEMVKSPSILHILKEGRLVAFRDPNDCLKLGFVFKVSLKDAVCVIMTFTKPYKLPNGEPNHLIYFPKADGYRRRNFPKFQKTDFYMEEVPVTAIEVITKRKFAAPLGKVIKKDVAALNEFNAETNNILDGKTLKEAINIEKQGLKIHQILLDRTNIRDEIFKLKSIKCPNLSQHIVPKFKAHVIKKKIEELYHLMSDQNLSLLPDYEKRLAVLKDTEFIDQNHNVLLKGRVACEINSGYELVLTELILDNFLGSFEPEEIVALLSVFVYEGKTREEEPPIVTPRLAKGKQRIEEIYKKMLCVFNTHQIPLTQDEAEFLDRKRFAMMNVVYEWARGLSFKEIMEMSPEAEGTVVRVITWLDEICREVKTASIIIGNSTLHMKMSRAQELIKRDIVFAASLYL

Ski3 = target: B2

Binder | stoichiometry N (native MS) | stoichiometry N (Ski2) | stoichiometry N (Ski3)
B1 | 3 |  | 
B2 |  | 1 | 
B3 |  | 2 | 2
